Reference: patent US20140120109A1 (Regeneron, published 2014)

T1: human TL1A, soluble, CHO-expressed, residues 72-251 of SEQ ID NO:244 with N-terminal His6-tag (human, UniProt O95150 72-251)
T1 sequence: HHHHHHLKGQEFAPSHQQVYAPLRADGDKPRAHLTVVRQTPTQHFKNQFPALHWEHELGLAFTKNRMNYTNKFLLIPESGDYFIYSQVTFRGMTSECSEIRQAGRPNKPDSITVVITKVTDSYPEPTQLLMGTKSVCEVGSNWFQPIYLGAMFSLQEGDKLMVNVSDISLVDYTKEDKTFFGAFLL

T2: Fhm, hTL1A(Q167R), soluble, CHO-expressed, residues 72-251 of SEQ ID NO:246 (human, UniProt O95150 72-251)
T2 construct: also called Fhm (CHO); FHM (CHO)
T2 chain: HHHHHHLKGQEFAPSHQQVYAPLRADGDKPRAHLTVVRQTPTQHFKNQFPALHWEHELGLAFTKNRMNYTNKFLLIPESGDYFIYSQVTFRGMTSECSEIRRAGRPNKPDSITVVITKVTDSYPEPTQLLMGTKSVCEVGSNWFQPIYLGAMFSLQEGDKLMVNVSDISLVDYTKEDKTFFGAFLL

T3: mouse TL1A, soluble, CHO-expressed, residues 76-252 of SEQ ID NO:250 with N-terminal His6-tag (mouse, UniProt Q5UBV8 76-252)
T3 construct: also called mTL1A; mTL1A (CHO)
T3 sequence: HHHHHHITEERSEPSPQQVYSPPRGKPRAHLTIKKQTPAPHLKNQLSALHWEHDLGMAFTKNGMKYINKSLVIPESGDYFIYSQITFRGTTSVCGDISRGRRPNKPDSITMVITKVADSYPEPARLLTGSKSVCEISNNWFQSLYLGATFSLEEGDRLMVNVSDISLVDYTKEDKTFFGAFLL


Experiments:
[1] = molecular target: T1, human TL1A, soluble, CHO-expressed, …; test: cell-based or functional assay
[2] = molecular target: T2, Fhm, hTL1A(Q167R), soluble, …; test: ELISA, blocks FHM (150 pM) binding hDR3-Fc; blocking of FHM binding to hDR3
Method: (§1) The ability of antibodies to block human TL1A binding to its cognate receptors, the DR3 and DcR3 receptors, was measured using a competition sandwich ELISA. In addition, blocking of a human TL1A variant FHM (human TL1A Q167R) and the cynomolgus monkey (Macaca fascicularis) TL1A (MfTL1A) protein binding to the human DR3 or DcR3 receptors was measured in the same manner. Constant amounts of biotinylated human TL1A or FHM (both expressed with a 6-His tag in CHO cells) or biotinylated MfTL1A (expressed in CHO cells) were separately titrated with varying amounts of antibodies. The antibody-protein complexes were incubated in solution (1 hr, 25° C.) and then transferred to microtiter plates coated with human DR3 (hDR3) or human DcR3 (hDcR3) expressed as human IgG1 Fc fusion proteins. After one hour at 25° C. the wells were washed, and bound human or monkey TL1A was detected with streptavidin conjugated with horseradish peroxidase (HRP). Wells were developed with a TMB solution to produce a colorimetric reaction and quenched with aqueous sulfuric acid before reading absorbance at 450 nm on a Perkin-Elmer Victor X5 plate reader. A sigmoidal dose-response curve was fit to the data using the Prism™ data analysis package. […] Both fully human anti-hTL1A mAbs and comparator antibodies, i.e., control mAb1 (an anti-hTL1A antibody with heavy and light chain variable domains having the amino acid sequences corresponding to SEQ ID NOS:21 and 27, respectively, of US 2009/0280116) and control mAb3 (an anti-hTL1A antibody with heavy and light chain variable domains having the amino acid sequences corresponding to SEQ ID NOS:57 and 48, respectively, of US 2009/0280116), were included in the study. NB: No binding under the conditions tested; NT: Not tested. Concentrations of biotinylated soluble ligands: (1) 150 pM; (2) 500 pM; (3) 10 pM; and (4) 50 pM.

[3] = molecular target: T2, Fhm, hTL1A(Q167R), soluble, …; test: ELISA, blocks FHM (10 pM) binding hDcR3-Fc; blocking of FHM binding to DcR3
Method: as §1

[4] = molecular target: T1, human TL1A, soluble, CHO-expressed, …; test: SPR 37C, mAb captured; kd set at 1e-6 1/s
Method: (§2) Measurements were conducted on a T100 BIACORE™ instrument. […] Kinetic association (kₐ) and dissociation (kd) rate constants were determined by fitting the data to a 1:1 binding model using BIAevaluation 4.1 curve fitting software (BIAcore Life Sciences). Molar concentrations of TL1A/Fhm used in the data fitting assumed a monomeric state for TL1A in solution. Binding dissociation equilibrium constants (KD) and dissociative half-lives (t_{1/2}) were calculated from the kinetic rate constants as: KD (M)=kd/kₐ; and t_{1/2} (min)=[In2/(60*kd)].

[5] = molecular target: T3, mouse TL1A, soluble, CHO-expressed, …; test: SPR 25C, mAb captured; 25 C, CHO-expressed mTL1A, SPR
Method: as §2

Row | % Blocking IFN-g, D1, 1 ug/ml mAb [1] [%] | % Blocking IFN-g, D1, 3 ug/ml mAb [1] [%] | % Blocking IFN-g, D2, 1 ug/ml mAb [1] [%] | % Blocking IFN-g, D2, 3 ug/ml mAb [1] [%] | % Blocking IFN-g, D3, 1 ug/ml mAb [1] [%] | % Blocking IFN-g, D3, 3 ug/ml mAb [1] [%] | % Blocking IFN-g, D4, 1 ug/ml mAb [1] [%] | % Blocking IFN-g, D4, 3 ug/ml mAb [1] [%] | % Blocking IFN-g, D5, 1 ug/ml mAb [1] [%] | % Blocking IFN-g, D5, 3 ug/ml mAb [1] [%] | % Blocking IFN-g, D6, 1 ug/ml mAb [1] [%] | % Blocking IFN-g, D6, 3 ug/ml mAb [1] [%] | % Blocking IFN-g, D7, 1 ug/ml mAb [1] [%] | % Blocking IFN-g, D7, 3 ug/ml mAb [1] [%] | % Blocking IFN-g, D8, 1 ug/ml mAb [1] [%] | % Blocking IFN-g, D8, 3 ug/ml mAb [1] [%] | % Blocking IFN-g, D9, 1 ug/ml mAb [1] [%] | % Blocking IFN-g, D9, 3 ug/ml mAb [1] [%] | % Blocking IFN-g, D10, 1 ug/ml mAb [1] [%] | % Blocking IFN-g, D10, 3 ug/ml mAb [1] [%] | Binder | other results
1 | 95 | 100 | 100 | 100 | 80 | 95 | 90 | 100 | 100 | 100 | 50 | 100 | 10 | 100 | 100 | 100 | 50 | 100 | 0 | 80 | H4H1804N (antibody, human IgG4 S228P, V domains shown, human IgG4(S108P) form of H2M1804N) VH: QVQLHQWGAGLLKPSETLSLTCAVSGVSFSDYHWAWIRQSPGKGLEWIGDINHRGRTNYNPSLKSRVTISLDTSGNPFSLKLTSVTAADTAVYYCARDFPNWVFDSWGQGILVTVSS VL: EIVLSQSPGTLSLSPGERATLSCRASQSVSSSFLAWYQQYPGQAPRLLIYGASRRATGIPDRFRGSGSGTDFTLTISRLEPEDFAVYYCQQYGSSPLTFGGGTKVENK | IC50 [2]: 0.069 nM
2 |  |  |  |  |  |  |  |  |  |  |  |  |  |  |  |  |  |  |  |  | H4H1681N (antibody, human IgG4 S228P, V domains shown) VH: EVQLLESGGGLVQPGKSLRLSCAVSGFTFSTYGMNWVRQAPGKGLEWVSSISGTGRTTYHADSVQGRFTVSRDNSKNILYLQMNSLRADDTAVYFCTKERGDYYYGVFDYWGQGTLVTVSS VL: DIQMTQSPSTLSASVGDRVTITCRASQTISSWLAWYQQTPEKAPKLLIYAASNLQSGVPSRFSGSGSGTEFTLTISSLQPDDFATYYCQQYHRSWTFGQGTKVEIT | IC50 [3]: 0.09 nM
3 |  |  |  |  |  |  |  |  |  |  |  |  |  |  |  |  |  |  |  |  | H4H1704N (antibody, human IgG4 S228P, V domains shown, human IgG4(S108P) form of H2M1704N) VH: EVQLVESGGGLVQPGGSLRLSCAVSGFTFSSYWMSWVRQAPGKGLEWVANIKEDGSEKNYVDSVKGRFTLSSDNAKNSLYLQMNSLRAEDTAVYYCAREDYDSYYKYGMDVWGQGTAVIVSS VL: not shown | Kd [4]: ≤ 1 pM; t1/2 [4]: ≥ 8.02 days
4 | 90 | 95 | 100 | 100 | 70 | 95 | 85 | 100 | 45 | 90 | 80 | 80 | 60 | 90 | 85 | 100 | 50 | 90 | 95 | 100 | H4H1725P (antibody, human IgG4 S228P, V domains shown) VH: QVQLVQSGAEVKKPGASVKVSCKASGYTFTGYYMHWVRQAPGQGLEWMGWIKPKSGGTNYVQKFQGRVTMTRDTSINTAYMELNNLKSDDTAVYYCATGGSQDASDFWGQGTMVTVSS VL: DIQMTQSPSSVSASVGGRVTITCRASQDISIWLAWYQQKPGKAPNLLIYAASSLQSGVPSRFSGSGSGTDFTLTISSLQPEDFATYYCQQADSFPLTFGGGTKVEIK | 
5 |  |  |  |  |  |  |  |  |  |  |  |  |  |  |  |  |  |  |  |  | H4H1742P (antibody, human IgG4 S228P, V domains shown) VH: EVQLVESGGGLVQPGGSLRLSCAASGFTFSNYVMNWVRQAPGKGLEWVSVISGSGGSTHYADSVKGRFTISRDNSKDALYLQMNSLRAEDTAVYYCAKGPLEAYYYYNGMDVWGQGTTVTVSS VL: DIQLTQSPSFLSASVGDRVTITCWASQAISSYLAWYQHKPGRAPKLLIYSTSTLQSGVPSRFSGSGSGTEFTLTISSLQPEDFATYYCQQLNSYPTFGQGTKLEIK | Kd [4]: ≤ 4.37 pM; t1/2 [4]: ≥ 8.02 days
6 | 100 | 100 | 100 | 100 | 90 | 95 | 100 | 100 | 100 | 80 | 100 | 100 | 100 | 100 | 100 | 100 | 90 | 70 | 100 | 100 | H4H1805N (antibody, human IgG4 S228P, V domains shown, human IgG4(S108P) form of H2M1805N) VH: QVQLQQWGAGLLKPSETLSLTCAVYGGSFTGFYWSWIRQPPGKGLEWIGEINHRGNTNYNPSLKSRVTMSVDTSKNQFSLNMISVTAADTAMYFCASPFYDFWSGSDYWGQGTLVTVSS VL: DIMLTQTPLTSPVTLGQPASISCKSSQSLVHSDGNTYLSWLQQRPGQPPRLLFYKISNRFSGVPDRFSGSGAGTDFTLKISRVEAEDVGVYYCMQATQFPLTFGGGTKVEIK | IC50 [3]: 0.436 nM
7 |  |  |  |  |  |  |  |  |  |  |  |  |  |  |  |  |  |  |  |  | H4H1818N (antibody, human IgG4 S228P, V domains shown, human IgG4(S108P) form of H2M1818N) VH: RLQLVESGGGLVKPGGSLKLSCAASGFTISDYYMSWIRQAPGKGLEWVSYIGGSGSTIYYADSVKGRFTISRDNAKNSLYLQMNSLRAEDTAVYYCAREDADSYYYYGMDVWGQGTTVTVSS VL: not shown | Kd [5]: 7.1 nM; t1/2 [5]: 12 min; Kd [4]: ≤ 0.925 pM; t1/2 [4]: ≥ 8.02 days
8 | 100 | 100 | 100 | 100 | 90 | 100 | 90 | 100 | 100 | 100 | 45 | 100 | 55 | 100 | 100 | 100 | 55 | 95 | 80 | 85 | H4H1817N (antibody, human IgG4 S228P, V domains shown, human IgG4(S108P) form of H2M1817N) VH: QVQLQQWGAGLLKPSETLSLTCAVSGGSFSDYFWTWIRQPPGKGLEWIGEISHSGRTNYNPSLKSRVTISVDTSMSQFSLKMTSVTAADSAVYYCARDYPNWVFDYWGQGTLVTVSS VL: EIELTQSPGTLSLSPGEGATLSCRASQSVFNSYLAWYQQKPGQAPRLLIYGASRRATGIPDRFSGSGSGTDFTLTISRLEPGDFAVYFCQQYGNSPLTFGGGTKVEIK | 
